Measurements taken from patent US20230151091A1 (NEW YORK UNIVERSITY, published 2023).
One block for each binder: values may come before it.

Columns and labels:
[1] = target: T1, human MuSK (human, UniProt O15146 24-495); assay: Biacore T200, off rate at pH 5.5 against pH 7.4
T1 construct: Recombinant protein coated on ELISA plates (R&D Systems cat. 10189-MK) or on the Biacore chip; also called human muscle-specific tyrosine protein kinase; full length human MuSK
T1 sequence: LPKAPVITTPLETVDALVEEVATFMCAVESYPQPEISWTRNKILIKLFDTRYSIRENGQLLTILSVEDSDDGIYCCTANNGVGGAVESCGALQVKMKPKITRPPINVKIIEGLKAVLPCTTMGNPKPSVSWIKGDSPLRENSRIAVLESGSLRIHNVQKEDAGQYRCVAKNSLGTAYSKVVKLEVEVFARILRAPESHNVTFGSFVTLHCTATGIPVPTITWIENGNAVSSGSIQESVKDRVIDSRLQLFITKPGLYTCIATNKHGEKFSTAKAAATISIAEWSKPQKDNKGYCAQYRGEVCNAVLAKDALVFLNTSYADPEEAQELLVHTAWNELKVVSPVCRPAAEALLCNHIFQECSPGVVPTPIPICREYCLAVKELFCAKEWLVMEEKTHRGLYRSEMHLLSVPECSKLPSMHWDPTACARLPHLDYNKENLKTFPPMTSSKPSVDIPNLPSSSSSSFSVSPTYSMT
Protocol: (§1) In order to study pH dependent binding of the antibodies described herein to MuSK, a Biacore T200 was used. Briefly, a CMS chip was coated with human and mouse MuSK (200RU) and 22.2 nM of Fab was applied and kinetic parameters calculated. Association was done at pH7.4, dissociation was done at pH 7.4 and also at pH 5.5. The following Fabs were tested, X2, X2m4, X3, X9, X17, 3B2 and 3B2g2m1 (Table 10 and FIG. 23). […] Binding affinity at pH 5.5 is very low, resulting in a rapid dissociation at endosomal pH allowing 3B2g2m1 to recycle.

[2] = target: T2, mouse MuSK (mouse, UniProt Q61006 22-494, limits assumed); assay: Biacore T200, off rate at pH 5.5 against pH 7.4
T2 construct: Coated on ELISA plates or on the Biacore chip; also called full length mouse MuSK; mouse MuSK (in house produced in HEK293 cells)
T2 sequence (looked up): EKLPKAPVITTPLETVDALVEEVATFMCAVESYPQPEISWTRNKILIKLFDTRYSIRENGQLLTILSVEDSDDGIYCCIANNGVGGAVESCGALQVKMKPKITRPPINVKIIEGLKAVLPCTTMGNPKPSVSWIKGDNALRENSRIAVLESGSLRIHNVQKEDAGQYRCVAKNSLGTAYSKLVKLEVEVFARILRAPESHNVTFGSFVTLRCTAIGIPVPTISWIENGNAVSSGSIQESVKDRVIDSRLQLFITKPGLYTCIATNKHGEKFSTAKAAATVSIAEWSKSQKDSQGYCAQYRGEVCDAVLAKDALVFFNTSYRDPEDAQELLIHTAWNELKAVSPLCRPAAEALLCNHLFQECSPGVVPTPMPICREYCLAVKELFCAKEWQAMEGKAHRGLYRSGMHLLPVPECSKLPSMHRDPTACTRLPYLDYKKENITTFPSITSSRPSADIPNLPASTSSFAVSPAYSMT
Protocol: as §1

[3] = target: T1, human MuSK; assay: Biacore, MuSK on chip (200RU), Fab dilution series
From the text: (§2) For affinity determination, a CMS chip was coated with either human or mouse MuSK (200RU) and a dilution series of the antibodies (mAbs and Fabs) was applied in order to be able to calculate the affinity.

[4] = target: T2, mouse MuSK; assay: Biacore, MuSK on chip (200RU), Fab dilution series
From the text: as §2

[5] = target: T1, human MuSK; assay: Biacore T200, MuSK on chip (200RU), 22.2 nM Fab, dissociation pH 5.5
Protocol: as §1

[6] = target: T2, mouse MuSK; assay: as above
Protocol: as §1

[7] = target: T1, human MuSK; assay: Biacore T200, MuSK on chip (200RU), 22.2 nM Fab, dissociation pH 7.4
Protocol: as §1

[8] = target: T2, mouse MuSK; assay: as above
Protocol: as §1

[9] = target: T1, human MuSK; assay: ELISA, plate coated with human MuSK at 0.2 µg/ml, dilution series of mAb, goat anti human Fc-HRP and TMB, OD 620 nm (8 min)
Protocol: An ELISA plate was coated with human MuSK (R&D Systems, cat. 10189-MK) or mouse MuSK (in house produced in HEK293 cells) at 0.2 μg/ml. After washing and blocking the plate, a dilution series of the anti-MuSK antibodies was applied and allowed to bind for 2 hours at room temperature. […] OD at 620 nm was measured with a 96 well ELISA plate reader.

[10] = target: T3, mFz: Fz domain and C-terminal flanking sequence of mouse MuSK (D307 to T494) with C-terminal Avi- and … (mouse, UniProt Q61006 307-494, limits assumed, biotinylated in vitro using the BirA enzyme); assay: bead-binding assay, Fab format: biotinylated antigen on streptavidin beads, flow cytometry, 1:1 fit; average ± s.d., n=3
T3 construct: also called mouse Fz; not shown: Avi- and His6-tags
T3 sequence (looked up): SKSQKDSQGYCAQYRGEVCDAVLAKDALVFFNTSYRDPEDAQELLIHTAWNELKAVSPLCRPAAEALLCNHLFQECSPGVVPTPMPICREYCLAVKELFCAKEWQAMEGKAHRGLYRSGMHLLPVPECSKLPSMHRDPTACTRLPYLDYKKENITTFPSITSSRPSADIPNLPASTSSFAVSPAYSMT

[11] = target: T4, hECD: full-length extracellular region of human MuSK (E22 to T495) with C-terminal Avi- and His6-tags (human, UniProt O15146 22-495, biotinylated in vitro using the BirA enzyme); assay: as above
T4 construct: also called human ECD; not shown: Avi- and His6-tags
T4 sequence: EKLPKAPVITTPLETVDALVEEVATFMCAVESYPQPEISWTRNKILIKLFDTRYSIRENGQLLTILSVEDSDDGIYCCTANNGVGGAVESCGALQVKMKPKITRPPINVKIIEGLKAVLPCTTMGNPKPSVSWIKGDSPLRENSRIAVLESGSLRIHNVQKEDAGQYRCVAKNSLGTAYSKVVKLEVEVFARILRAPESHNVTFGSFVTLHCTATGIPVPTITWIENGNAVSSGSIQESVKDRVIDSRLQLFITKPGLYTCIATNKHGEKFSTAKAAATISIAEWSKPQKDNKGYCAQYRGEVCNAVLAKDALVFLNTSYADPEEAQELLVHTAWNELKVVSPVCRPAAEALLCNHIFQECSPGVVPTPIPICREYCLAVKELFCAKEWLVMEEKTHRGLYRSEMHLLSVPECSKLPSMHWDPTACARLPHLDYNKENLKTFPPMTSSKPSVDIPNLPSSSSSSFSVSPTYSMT

[12] = target: T5, mECD: full-length extracellular region of mouse MuSK (E22 to T494) with C-terminal Avi- and His6-tags (mouse, UniProt Q61006 22-494, biotinylated in vitro using the BirA enzyme); assay: as above
T5 construct: range 22-494; also called mouse ECD; not shown: Avi- and His6-tags
T5 sequence (looked up): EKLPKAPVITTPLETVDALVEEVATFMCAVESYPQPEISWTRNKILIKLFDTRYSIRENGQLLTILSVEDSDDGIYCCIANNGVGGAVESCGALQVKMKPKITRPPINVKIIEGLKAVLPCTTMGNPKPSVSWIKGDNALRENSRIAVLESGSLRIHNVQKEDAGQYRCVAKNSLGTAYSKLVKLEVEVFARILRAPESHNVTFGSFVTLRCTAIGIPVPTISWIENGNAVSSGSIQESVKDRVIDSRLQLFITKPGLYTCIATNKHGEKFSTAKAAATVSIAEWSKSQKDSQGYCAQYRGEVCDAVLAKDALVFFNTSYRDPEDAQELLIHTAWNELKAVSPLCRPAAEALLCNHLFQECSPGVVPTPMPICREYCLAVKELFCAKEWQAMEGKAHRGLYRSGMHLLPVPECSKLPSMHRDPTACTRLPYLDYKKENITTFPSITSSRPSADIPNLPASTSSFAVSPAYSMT

[13] = target: T6, hFz: Fz domain and C-terminal flanking sequence of human MuSK (K314-T495) with C-terminal Avi- and His6-tags (human, UniProt O15146 314-495, biotinylated in vitro using the BirA enzyme); assay: as above
T6 construct: also called human Fz; not shown: Avi- and His6-tags
T6 sequence: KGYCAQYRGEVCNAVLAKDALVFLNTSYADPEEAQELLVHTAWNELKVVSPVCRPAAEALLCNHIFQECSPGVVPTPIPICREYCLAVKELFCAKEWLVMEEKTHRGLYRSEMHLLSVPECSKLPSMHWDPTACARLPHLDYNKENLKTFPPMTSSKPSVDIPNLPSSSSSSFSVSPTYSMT

[14] = target: T3, mFz: Fz domain and C-terminal flanking …; assay: bead-binding titration, Fab format: antigen immobilized on streptavidin beads, MFI by flow cytometry, curve is the 1:1 fit
[15] = target: T4, hECD: full-length extracellular region …; assay: as above
[16] = target: T5, mECD: full-length extracellular region …; assay: as above
[17] = target: T6, hFz: Fz domain and C-terminal flanking …; assay: as above

EC50 (read off the curve) [9]: ~0.04 µg/mL
B2: 14D10 (antibody, V domains shown)
VH: ELQLVESGGGLVQPGGSLRLSCAASGFTFDDYGMSWVRQAPGKGLEWVSAIPWNGGSTYYKESVKGRFTISRDNAKKTLYLQMNSLKSEDTAVYYCAKRSGRIAFGALDAWGQGTLVTVSS
VL: QAVVTQEPSLSVSPGGTVTLTCGLSSGSVTSSNYPDWYQQTPGQAPRTLIYTTNSRHSGVPSRFSGSISGNKAALTITGAQPEDEADYYCALYMGGGSNVYVFG
notes: human IgG1 with the LALA mutations (L234A, L235A); produced in HEK293 cells

EC50 (read off the curve) [9]: ~0.02 µg/mL
B3: 17H10 (antibody, V domains shown)
VH: QVQVQESGPGLVKPSQTLSLTCTVSGGSITARYYSWSWIRQPPGKGLEWMGVIAYDGSTYYSPSLKSRTSISRDTSKNQFSLHLSSVTPDDTAVYYCARGSSRVAAAFDSWGQGTQVTVSS
VL: SYELTQSPSVSVALRQTAKITCGGNRIGGKSVQWYQQKPGQAPMLVIYADSRRPSGIPERFTGSNSGNTATLTITGAQAEDEADYYCHVWGSTASADFGGGTHLTVL
notes: as for B2

More lines, now with the values behind:

B1: 3B2 Fab (Fab, V domains shown)
VH: ELQLVESGGGLVQPGGSLRLSCAASGFTFDDYGMSWVRQAPGKGLEWVSAIPWNGGSTYYKESVKGRFTISRDNAKKTLYLQMNSLKSEDTAVYYCAKRSGRIAFGALDAWGQGTLVTVSS
VL: QAVVTQEPSLSVSPGGTVTLTCGLSSGSVTSSNYPDWYQQTPGQAPRGLIYSTDSRHSGVPSRFSGSISGNKAALTITGAQSEDEADYYCGLYMYSGSKNYVFGGGTKLTVL
notes: Fab format; also called Fab 3B2
Ratio pH 5.5/7.4 of off rate [1]: 5.8
Ratio pH 5.5/7.4 of off rate [2]: 31.5
Kd [3]: 3.18 nM
Kd [4]: 1.52 nM
koff [5]: 0.0224 s⁻¹
koff [6]: 0.109 s⁻¹
koff [7]: 0.00388 s⁻¹
koff [8]: 0.00347 s⁻¹

B4: X1 Fab (Fab, V domains shown)
VH: EVQLVESGGGLVQPGGSLRLSCAASGFTFSSSSIHWVRQAPGKGLEWVASISSSSGSTSYADSVKGRFTISADTSKNTAYLQMNSLRAEDTAVYYCARKYWSQYYWAHYYGGLDYWGQGTLVTVSS
VL: DIQMTQSPSSLSASVGDRVTITCRASQSVSSAVAWYQQKPGKAPKLLIYSASSLYSGVPSRFSGSRSGTDFTLTISSLQPEDFATYYCQQSSSSLITFGQGTKVEIK
notes: m52 is the same Fab tetramerized with streptavidin; also called Fab Clone X1 (monovalent Fab format)
Kd [10]: 1.09 nM
Kd [11]: 0.55 nM
Kd [12]: 1.34 nM
Kd [13]: 0.39 nM
EC50 (read off the curve) [14]: ~1 nM
EC50 (read off the curve) [15]: ~0.5 nM
EC50 (read off the curve) [16]: ~1 nM
EC50 (read off the curve) [17]: ~0.4 nM
